Assay results taken from IntAct's records for PubMed 31515488.

B1: Keratin, type II cytoskeletal 79 (Homo sapiens), Q5XKE5 (parent)
chain: MRSSVSRQTYSTKGGFSSNSASGGSGSQARTSFSSVTVSRSSGSGGGAHCGPGTGGFGSRSLYNLGGHKSISVSVAGGALLGRALGGFGFGSRAFMGQGAGRQTFGPACPPGGIQEVTVNQSLLTPLHVEIDPEIQRVRTQEREQIKTLNNKFASFIDKVRFLEQQNKVLETKWALLQEQGQNLGVTRNNLEPLFEAYLGSMRSTLDRLQSERGRLDSELRNVQDLVEDFKNKYEDEINKHTAAENEFVVLKKDVDAAYMGRMDLHGKVGTLTQEIDFLQQLYEMELSQVQTHVSNTNVVLSMDNNRNLDLDSIIAEVKAQYELIAQRSRAEAEAWYQTKYEELQVTAGKHGDNLRDTKNEIAELTRTIQRLQGEADAAKKQCQQLQTAIAEAEQRGELALKDAQKKLGDLDVALHQAKEDLTRLLRDYQELMNVKLALDVEIATYRKLLESEESRMSGECPSAVSISVTGNSTTVCGGGAASFGGGISLGGSGGATKGGFSTNVGYSTVKGGPVSAGTSILRKTTTVKTSSQRY
B2: Pyruvate dehydrogenase protein X component, mitochondrial (Homo sapiens), O00330 (parent)
chain: MAASWRLGCDPRLLRYLVGFPGRRSVGLVKGALGWSVSRGANWRWFHSTQWLRGDPIKILMPSLSPTMEEGNIVKWLKKEGEAVSAGDALCEIETDKAVVTLDASDDGILAKIVVEEGSKNIRLGSLIGLIVEEGEDWKHVEIPKDVGPPPPVSKPSEPRPSPEPQISIPVKKEHIPGTLRFRLSPAARNILEKHSLDASQGTATGPRGIFTKEDALKLVQLKQTGKITESRPTPAPTATPTAPSPLQATAGPSYPRPVIPPVSTPGQPNAVGTFTEIPASNIRRVIAKRLTESKSTVPHAYATADCDLGAVLKVRQDLVKDDIKVSVNDFIIKAAAVTLKQMPDVNVSWDGEGPKQLPFIDISVAVATDKGLLTPIIKDAAAKGIQEIADSVKALSKKARDGKLLPEEYQGGSFSISNLGMFGIDEFTAVINPPQACILAVGRFRPVLKLTEDEEGNAKLQQRQLITVTMSSDSRVVDDELATRFLKSFKANLENPIRLA
B3: Isoform 1 of Nuclear RNA export factor 3 (Homo sapiens), Q9H4D5-1 (parent)
chain: MSLPSGHTTGHTDQVVQRRARCWDIYQRRFSSRSEPVNPGMHSSSHQQQDGDAAMHGAHMDSPVRYTPYTISPYNRKGSFRKQDQTHVNMEREQKPPERRMEGNMPDGTLGSWFKITVPFGIKYNEKWLLNLIQNECSVPFVPVEFHYENMHASFFVENASIAYALKNVSGKIWDEDNEKISIFVNPAGIPHFVHRELKSEKVEQIKLAMNQQCDVSQEALDIQRLPFYPDMVNRDTKMASNPRKCMAASLDVHEENIPTVMSAGEMDKWKGIEPGEKCADRSPVCTTFSDTSSNINSILELFPKLLCLDGQQSPRATLCGTEAHKRLPTCKGSFFGSEMLKNLVLQFLQQYYLIYDSGDRQGLLSAYHDEACFSLSIPFNPEDSAPSSFCKFFKDSRNIKILKDPYLRGELLKHTKLDIVDSLSALPKTQHDLSSFLVDMWYQTEWMLCFSVNGVFKEVEGQSQGSVLAFTRTFIATPGSSSSLCIVNDKLFVRDTSHQGTQSALFTLVPTAFSSSVPAFSQEQQKMLPS
partner: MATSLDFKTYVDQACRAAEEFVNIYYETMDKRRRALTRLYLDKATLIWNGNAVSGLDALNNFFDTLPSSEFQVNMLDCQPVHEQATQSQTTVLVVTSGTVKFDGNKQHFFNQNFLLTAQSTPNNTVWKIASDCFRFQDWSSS

Variants of: B1
Settings: with kt33b_human KRT33B

effect of a mutation on the interaction	Variant
with no effect	D217Y
with no effect	H266R

Variants of: B1
Settings: with KRT15, P19012
Chain of KRT15, P19012 (P19012 whole entry): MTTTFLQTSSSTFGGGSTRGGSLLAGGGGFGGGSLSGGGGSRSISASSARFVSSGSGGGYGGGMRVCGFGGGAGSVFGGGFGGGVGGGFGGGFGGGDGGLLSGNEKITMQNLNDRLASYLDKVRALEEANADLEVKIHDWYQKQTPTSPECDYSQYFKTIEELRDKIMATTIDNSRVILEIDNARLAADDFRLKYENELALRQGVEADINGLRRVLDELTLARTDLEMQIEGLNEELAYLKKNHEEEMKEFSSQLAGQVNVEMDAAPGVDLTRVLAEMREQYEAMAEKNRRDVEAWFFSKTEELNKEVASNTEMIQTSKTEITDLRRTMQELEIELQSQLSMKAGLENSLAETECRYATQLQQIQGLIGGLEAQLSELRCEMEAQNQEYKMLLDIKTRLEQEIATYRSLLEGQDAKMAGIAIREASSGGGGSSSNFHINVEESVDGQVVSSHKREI

effect of a mutation on the interaction	Variant
with no effect	D217Y
with no effect	R161Q
with no effect	G86E
with no effect	H266R
with no effect	R213W
with no effect	R30C

Variants of: B2
Settings: with atrap_human AGTRAP

effect of a mutation on the interaction	Variant
with no effect	N270S

Variants of: B3
Settings: with nxt2_human NXT2, Q9NPJ8

effect of a mutation on the interaction	Variant
with no effect	T9K

Variants of: B3
Settings: with nxt2_human NXT2, Q9NPJ8
Remark: another data set of the same source

effect of a mutation on the interaction	Variant
disrupting interaction strength	R409W
